We go through 2 molecules from patent US9925272B2, “Anti-theophylline antibodies and methods of use” (Hoffmann-La Roche Inc., priority 2012, dated 2018).

Like-named read-outs stand apart in the source and are kept apart here.

The term Kd denotes a measure of binding affinity in units of concentration.

Test [1] in a line: ELISA for specific binding of the antibody to immobilized biotinylated theophylline. Conditions: biotinylated theophylline 500 ng/mL on streptavidin plates; antibody 50-3000 ng/mL; anti-huFc Fab-HRP/ABTS, absorbance 405 nm. The method, then:
To determine specific binding of the antibody by ELISA, Streptavidin coated ELISA plates were loaded with biotinylated theophylline (500 ng/mL in PBS) and incubated for 30 minutes at room temperature. After washing twice to remove unbound antigen, antibodies were added at concentrations between 50 and 3000 ng/mL (in PBS) and incubated for 30 minutes. After washing twice, bound antibody was detected with an anti-huFc Fab-HRP conjugate and ABTS substrate (with absorbance measurement at 405 nm).
For orientation: ELISA stands for enzyme-linked immunosorbent assay.

The nature of test [2]: Surface-plasmon-resonance (SPR) analysis of the affinity of antibody binding to theophylline. An excerpt:
FIG. 3 Binding profiles of the theophylline binding antibodies in SPR experiments.
To determine the affinity of specific binding of the antibody to theophylline, surface-plasmon-resonance (SPR) analyses were applied.

The mark [3] stands for this setting: read-out: calculated affinities (KD).

B1: humanized antibody: humanized anti-theophylline antibody; VH SEQ ID NO: 12 (V71R), VL SEQ ID NO: 16 (R46L); human IgG1/kappa constant regions (antibody, V domains shown)
VH: QVQLQESGPGLVKPSQTLSLTCTVSGYSITSDYAWNWIRQHPGKGLEWIGYIRYSGHTGYNPSLKSRVTISRDTSKNQFSLKLSSVTAADTAVYYCARWVDYFDYWGQGTLVTVSS
VL: DVVMTQSPLSLPVTLGQPASISCRSSQSIVYNNRYTYLEWFQQRPGQSPRLLIYGVSNRFSGVPDRFSGSGSGTDFTLKISRVEAEDVGVYYCYQGTHAPYTFGQGTKLEIK
modifications: human IgG1/kappa constant regions; humanized VH; humanized VL
With B1, the “binding to theophylline immobilized on the ELISA plate” value in test [1] is “binds specifically and dose dependent to theophylline”. Further, the ka in test [2] turned out to be 1.31E+05. This molecule also yielded a kd in test [2] of 0.002214. For the same molecule, the dissociation constant Kd in test [2] (read-out: KD) is 17 nM; in test [2] (setting [3]), 17 nM; in test [2] (unit inferred, read-out: KD), 17 nM.

B2: murine antibody: murine anti-theophylline antibody, IgG1 kappa, from mouse hybridoma; VH SEQ ID NO: 04, VL SEQ ID NO: 08 (antibody, listed as Mus musculus, V domains shown)
VH: DVQLQESGPGLVKPSQSLSLTCAVTGYSITSDYAWNWIRQFPGNRLEWMGYIRYSGHTGYNPSLKSRISITRDTFKNQFFLQFNSVTTEDTATYYCARWVDYFDYWGQGTTLTVSS
VL: DVVMTQSPLSLPVSLGDQASISCRSSQSIVYNNRYTYLEWFVQKPGQSLKLLIYGVSNRFSGVPDRFSGSGSGTDFTLKISRVEAEDMGVYYCYQGTHAPYTFGGGTKLEIK
With B2, in test [2], the ka is 1.12E+05. The kd in test [2] turned out to be 0.00228. Besides, the Kd is 20.3 nM in test [2] (read-out: KD); 20 nM in test [2] (setting [3]); 20.3 nM in test [2] (unit inferred, read-out: KD).
